Results taken from patent EP2767548A2 (Argen-X B.V., dated 2014).

Molecular target: Human CD16 (biotinylated, Sino Biological Inc, cat#10389-H27H1-B) (human, UniProt P08637 17-208, biotinylated)
Assay: ELISA, biotinylated CD16 captured on neutravidin, anti-human Fab-HRP detection

Human CD16 (biotinylated, Sino Biological Inc, cat#10389-H27H1-B), sequence (P08637 17-208): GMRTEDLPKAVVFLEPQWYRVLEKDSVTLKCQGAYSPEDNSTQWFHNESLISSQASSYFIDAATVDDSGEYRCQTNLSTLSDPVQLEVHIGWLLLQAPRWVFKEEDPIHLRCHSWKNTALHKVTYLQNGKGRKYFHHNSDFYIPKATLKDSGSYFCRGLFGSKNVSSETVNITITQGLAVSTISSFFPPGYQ

- EC50: 3.58 µg/mL
B1: IgG3-MAB1 (antibody)
chain 1: QLLLQESGPGLVKPSETLSLTCTVSGGSLSSSFSYWVWIRQPPGKGLEWIGTIYYSGNTYYNPSLKSRLTISVDTSKNHFSLKLSSVTAADTAVYYCARRAGILTGYLDSWGQGTLVTVSS
chain 2: SYVLTQSPSVSVAPGQTARITCGGNNIGSKSVHWYQQKPGQAPVLVVYDDSDRPSGIPERFSASNSGNTATLTISRVEAGDEADYYCQVWDSSSDHVVFGGGTKLTVL
